B1: 1H3 (antibody, V domains shown)
VH: QVQLKESGPGLVAPSQSLSITCTVSGFSLSNYGVHWVRQPPGKGLEWLVLIWSDGSTTYNSALKSRLSISKDNSKSQVFLKMNSLQTGDTAMYYCARHPYDDYSGYYYTMDYWGQGTSVTVSS
VL: DIQMTQASSSLSVSLGGRVTITCKASDHINNWLAWYQQKPGNAPRLLISGATSLETGVPSRFSGSGSGKDYTLSITSLQTEDVATYYCQQYWSSPLTFGAGTKLELK
notes: Mouse anti-human Siglec-15 mAb
B2: 5G12 (antibody, V domains shown)
VH: QVQLQQPGAELVKPGASVKMSCKASGYTFTSYWITWVIQRPGQGLEWIGDIYCGSDTMHYNEKFKNKATLTVDTSSSTAYMQLSSLTSEDSAVYYCARWWDYGSSYDYFDYWGQGTTLTVSS
VL: DIKMTQSPSSMYASLGERVTITCKASQDINSYLSWFQQKPGKSPKTLIYRANRLVDGVPSRFSGSGSGQDYSLTISSLEYEDMGIYYCLQYDEFPYTFGGGTKLEIKR
notes: as for B1

Tests used:
[1] = biological target: T1, mS15 (Mus musculus); experiment: flow cytometry titration, 293T cells transfected with mouse Siglec-15 (293T.mS15)
T1 construct: full length, cell surface; also called mouse Siglec-15
Method: […] Cells were incubated at 4 degrees C. for 30 minutes, then washed twice with excess FACS buffer. Cells were resuspended in 100 ul FACS buffer and 0.005 ug of anti-mouse IgG-PE secondary antibody was added to samples, incubated for 30 minutes and washed twice with excess FACS buffer. Cells were fixed in fixation buffer (2% formaldehyde in PBS) and subsequently analyzed by flow cytometry.

[2] = biological target: T2, S15-extra cellular domain (ECD) monomer (human, UniProt Q6ZMC9 20-263); experiment: BLI (Octet RED96), mAb on anti-human Fc sensors, S15-ECD monomer in solution, global fit
T2 construct: also called S15 monomer protein
T2 sequence: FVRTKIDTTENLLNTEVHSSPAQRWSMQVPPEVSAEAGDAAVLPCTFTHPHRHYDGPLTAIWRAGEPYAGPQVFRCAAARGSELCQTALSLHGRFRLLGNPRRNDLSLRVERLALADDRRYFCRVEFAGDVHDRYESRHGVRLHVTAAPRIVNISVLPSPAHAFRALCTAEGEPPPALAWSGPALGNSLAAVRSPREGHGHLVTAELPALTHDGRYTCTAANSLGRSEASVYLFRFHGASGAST
Method: Optimized KD experiments were performed on a ForteBio Octet RED96 instrument using anti-human Fc capture (AHC, 18-5060; ForteBio) sensors. Assay buffer was PBS containing 0.05% Tween-20 and regeneration buffer was 10 mM glycine (pH 1.5). First the antibodies were loaded at 1 μg/mL for 600 seconds. This was followed by a 60 second baseline step, a 300 second association step in S15-extra cellular domain (ECD) monomer, and finally a 1200 second dissociation step. The monomer concentrations ranged from 100 nM to 1.56 nM in a two-fold dilution series and a blank well was included. Data was processed using ForteBio's Data Analysis Software 7.0; a global fit was used, along with reference well subtraction. Reported values are the average of at least three independent octet runs.

Binder | EC50 (read off the curve) [1] | Kd [2] | koff [2] | kon [2]
B1 | ~0.05 µg/mL | 0.11 nM | 3.9e-05 s⁻¹ | 359000 M⁻¹ s⁻¹
B2 | ~0.05 µg/mL | 0.3 nM | 0.000123 s⁻¹ | 421000 M⁻¹ s⁻¹
